Measured values taken from article PMC3649978.

Biological target: EB1 (competitive binding assay, source not named) (UniProt Q61166)
Test: competitive binding assay; data not shown; p104_(554–593) as competitor of EB1 binding to recombinant p104

Chain of UniProt Q61166 (Q61166 whole entry): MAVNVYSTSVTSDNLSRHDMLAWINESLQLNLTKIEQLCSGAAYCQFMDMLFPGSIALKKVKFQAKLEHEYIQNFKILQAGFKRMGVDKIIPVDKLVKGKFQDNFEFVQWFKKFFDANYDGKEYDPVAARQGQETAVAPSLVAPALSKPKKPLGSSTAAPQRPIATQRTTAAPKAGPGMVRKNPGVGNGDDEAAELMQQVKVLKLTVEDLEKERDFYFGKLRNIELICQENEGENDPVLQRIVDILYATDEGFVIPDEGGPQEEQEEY

Q: For “p104_(554–593) (soluble 40 aa fragment of p104; recombinant form GFP-p104_(554–593)) (domain or fragment)”, which molar excess for 50% inhibition (fold molar excess) is on record?
A: The molar excess for 50% inhibition (fold molar excess) was 3.
